# According to US7067302B2, “DNA and amino acid sequence of a tyrosine ammonia lyase enzyme from the bacterium Rhodobacter sphaeroides” (E. I. du Pont de Nemours and Company, priority 2002, dated 2006):
# B1: RsTAL: the TAL enzyme from Rhodobacter sphaeroides, 526 amino acids, SEQ ID NO:3 (protein)
# chain: VKPMLAMSPPKPAVELDRHIDLDQAHAVASGGARIVLAPPARDRCRASEARLGAVIREARHVYGLTTGFGPLANRLISGENVRTLQANLVHHLASGVGPVLDWTTARAMVLARLVSIAQGASGASEGTIARLIDLLNSELAPAVPSRGTVGASGDLTPLAHMVLCLQGRGDFLDRDGTRLDGAEGLRRGRLQPLDLSHRDALALVNGTSAMTGIALVNAHACRHLGNWAVALTALLAECLRGRTEAWAAALSDLRPHPGQKDAAARLRARVDGSARVVRHVIAERRLDAGDIGTEPEAGQDAYSLRCAPQVLGAGFDTLAWHDRVLTIELNAVTDNPVFPPDGSVPALHGGNFMGQHVALTSDALATAVTVLAGLAERQIARLTDERLNRGLPPFLHRGPAGLNSGFMGAQVTATALLAEMRATGPASIHSISTNAANQDVVSLGTIAARLCREKIDRWAEILAILALCLAQAAELRCGSGLDGVSPAGKKLVQALREQFPPLETDRPLGQEIAALATHLLQQSPV
# modifications: R. sphaeroides
# B2: wild-type PAL/TAL enzyme from the yeast Rhodosporidium: wild-type PAL/TAL enzyme from the yeast Rhodosporidium (protein, UniProt P11544 1-716, looked up)
# Phenylalanine/tyrosine …: MAPSLDSISHSFANGVASAKQAVNGASTNLAVAGSHLPTTQVTQVDIVEKMLAAPTDSTLELDGYSLNLGDVVSAARKGRPVRVKDSDEIRSKIDKSVEFLRSQLSMSVYGVTTGFGGSADTRTEDAISLQKALLEHQLCGVLPSSFDSFRLGRGLENSLPLEVVRGAMTIRVNSLTRGHSAVRLVVLEALTNFLNHGITPIVPLRGTISASGDLSPLSYIAAAISGHPDSKVHVVHEGKEKILYAREAMALFNLEPVVLGPKEGLGLVNGTAVSASMATLALHDAHMLSLLSQSLTAMTVEAMVGHAGSFHPFLHDVTRPHPTQIEVAGNIRKLLEGSRFAVHHEEEVKVKDDEGILRQDRYPLRTSPQWLGPLVSDLIHAHAVLTIEAGQSTTDNPLIDVENKTSHHGGNFQAAAVANTMEKTRLGLAQIGKLNFTQLTEMLNAGMNRGLPSCLAAEDPSLSYHCKGLDIAAAAYTSELGHLANPVTTHVQPAEMANQAVNSLALISARRTTESNDVLSLLLATHLYCVLQAIDLRAIEFEFKKQFGPAIVSLIDQHFGSAMTGSNLRDELVEKVNKTLAKRLEQTNSYDLVPRWHDAFSFAAGTVVEVLSSTSLSLAAVNAWKVAAAESAISLTRQVRETFWSAASTSSPALSYLSPRTQILYAFVREELGVKARRGDVFLGKQEVTIGSNVSKIYEAIKSGRINNVLLKMLA
# B3: TAL enzyme from Trichosporon cutaneum: inducible TAL enzyme isolated from the yeast Trichosporon cutaneum (protein)
# chain: MFIETNVAKPASTKAMNAGSAKAAPVEPFATYAHSQATKTVSIDGHTMKVGDVVAVARHGAKVELAASVAGPVRASVDFKESKKHTSIYGVTTGFGGSADTRTSDTEALQISLLEHQLCGFLPTDATYEGMLLAAMPIPIVRGAMAVRVNSCVRGHSGVRLEVLQSFADFINRGLVPCVPLRGTISASGDLSPLSYIAGAICGHPDVKVFDTAASPPTVLTSPEAIAKYGLKTVKLASKEGLGLVNGTAVSAAAGALALYDAECLAIMSQTNTVLTVEALDGHVGSFAPFIQEIRPHAGQIEAARNIRHMLGGSKLAVHEESELLADQDAGILRQDRYALRTSAQWIGPQLEALGLARQQIETELNSTTDNPLIDVEGGMFHHGGNFQAMAVTSAMDSARIVLQNLGKLSFAQVTELINCEMNHGLPSNLAGSEPSTNYHCKGLDIHCGAYCAELGFLANPMSNHVQSTEMHNQSVNSMAFASARRTMEANEVLSLLLGSQMYCATQALDLRVMEVKFKMAIVKLLNETLTKHFAAFLTPEQLAKLNTHAAITLYKRLNQTPSWDSAPRFEDAAKHLVGVIMDALMVNDDITDLTNLPKWKKEFAKEAGNLYRSILVATTADGRNDLEPAEYLGQTRAVYEAVRSELGVKVRRGDVAEGKSGKSIGSSVAKIVEAMRDGRLMGAVGKMF
# modifications: T. cutaneum
# Tests used:
# [1] = Kinetic analysis of purified RsTAL with phenylalanine (Lineweaver-Burk); type: biochemical; settings: substrate phenylalanine
# Description: (§1) A 500 mL culture of the E. coli BL21(DE3)RP(pKK233.RsTAL2) strain was grown in LB Broth, containing […] ampicillin to mid log phase, induced with 1 mM IPTG, and incubated overnight (18 h) in a 37° C. shaker. The cells were centrifuged and resuspended in 10 mL of Buffer A (50 mM Tris-HCl, pH 8.5 buffer, 5 mM DTT (dithiothreitol), and 1 mM tyrosine) containing one and a half EDTA-free protease inhibitor tablets (Roche Applied Science, Indianapolis, Ind.). The cells were then passed through a French Press Cell twice, and centrifuged at 18000 rpm for 20 min. Ammonium sulfate at 30% saturation was added to the […] supernatant and the resulting precipitate was removed by centrifugation. The supernatant from this first fractionation was then treated with ammonium sulfate at 50% saturation. […] The eluted fractions were analyzed for TAL activity, and the fractions containing TAL activity were pooled, precipitated again using ammonium sulfate at 50% saturation, and desalted using a 3 mL desalting column (Bio-Rad Laboratories, Hercules, Calif.). […] TAL activity was detected in the flow-through fractions. […]
# The kinetic parameters of the RsTAL enzyme were characterized using'the TAL enzyme assay described above. The initial rates of the enzyme reaction were measured at tyrosine concentrations of 0.01 to 10 mM in 50 mM Tris-HCl, pH 8.5 buffer. […]
# [2] = Kinetic analysis of purified RsTAL with tyrosine (Lineweaver-Burk); type: biochemical
# Description: Crude cell extracts were generated by sonication of a suspension of the transformed cells, followed by centrifugation. The TAL enzyme activity of the crude cell extracts was determined by an enzyme assay using 40 μg of crude cell extract in 10 mM Tris-HCl, pH 8.5 buffer containing 1 mM tyrosine. The OD of the pHCA produced was followed at 315 nm with an extinction coefficient of […]. The results of the TAL enzyme assay are given in Table 5 in terms of activity units. A unit (U) is defined as follows: one unit of activity deaminated 1 μmol of tyrosine to pHCA per min.
# as §1
# The kinetic parameters of the RsTAL enzyme were characterized using'the TAL enzyme assay described above. The initial rates of the enzyme reaction were measured at tyrosine concentrations of 0.01 to 10 mM in 50 mM Tris-HCl, pH 8.5 buffer. The values of kcat and Km of the RsTAL enzyme for both tyrosine and phenylalanine were determined using Lineweaver-Burk analysis and the results are given in Table 6.
# [3] = literature values; cited from earlier work
# [4] = substrate tyrosine, 50 mM Tris-HCl, pH 8.5
molecule,measurement,setting,value
B1,Km,[1],560 µM
same,kcat,[1],0.01 s⁻¹
same,Km,[2]; [4],60 µM
same,kcat,[2]; [4],0.02 s⁻¹
same,TAL/PAL Ratio,[2]; tyrosine versus phenylalanine as substrate,19
B2,TAL/PAL ratio (TAL catalytic activity to PAL catalytic activity),[3],0.58
B3,PAL/TAL activity ratio,[3],0.73
